From paper doi:10.1101/503680 (bioRxiv, 2018)

Biological target: His6-KIF3A-motor (mouse, UniProt P28741 1-350)
Experiment: SPR

Sequence of His6-KIF3A-motor (P28741 1-350): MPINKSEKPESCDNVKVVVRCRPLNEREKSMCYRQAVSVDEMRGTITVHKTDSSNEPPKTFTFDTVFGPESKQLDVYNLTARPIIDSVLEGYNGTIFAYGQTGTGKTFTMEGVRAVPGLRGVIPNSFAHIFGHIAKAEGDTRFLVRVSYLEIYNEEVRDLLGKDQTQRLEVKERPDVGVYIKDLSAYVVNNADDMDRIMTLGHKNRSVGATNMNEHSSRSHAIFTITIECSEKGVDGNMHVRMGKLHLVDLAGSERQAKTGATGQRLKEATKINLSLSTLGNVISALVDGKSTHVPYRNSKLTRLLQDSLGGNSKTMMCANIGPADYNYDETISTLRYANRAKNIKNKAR

B1: GST-KIF3A-S689A-Tail (domain or fragment, mouse, UniProt P28741 598-701, looked up)
chain: IPQDYQEMIENYVHWNEDIGEWQLKCVAYTGNNMRKQTPVPDKKERDPFEVDLSHVYLAYTEESLRQSLMKLERPRTSKGKARPKMGRRKRAAKPETVIDSLLQ
Kd: 48.4 nM
